Tests used:
[1] = biological target: T1, V7-AMG510 HLA-A*03:01 MHC-I complex (human); test: BLI (Octet), derived from FIG. 3A; biotinylated MHC-I complex on streptavidin biosensor
T1 construct: also called V7-Sotorasib A*03:01; V7-510 A*03:01
Protocol: (§1) Kinetic measurements via Octet. Kinetic constants for Fabs were determined using an Octet RED384 instrument (ForteBio). For screens, a single concentration of Fab (100 nM) was tested, and for kinetic characterization Fabs were tested at several concentrations, as noted in the relevant figure. Biotinylated peptides (1 μM in 1% BSA/PBS) or biotinylated MHC-I complexes (200 nM in 1% BSA/PBS) were immobilized on ForteBio streptavidin SA biosensors for all assays. All measurements were performed in 1% BSA PBS pH 7.4 in 384 well plates. Data were analyzed using a 1:1 interaction model with global fitting on the ForteBio data analysis software (9.0.0.6). KD values were determined by the fitting of either equilibrium or maximum response (nm) as a function of Fab concentration.

[2] = biological target: T1, V7-AMG510 HLA-A*03:01 MHC-I complex; test: competition ELISA: the concentration is that of free AMG510 (small molecule, the varied competitor) preincubated with the Fab; read-out is Fab binding to streptavidin-captured V7-AMG510 HLA-A*03:01, anti-myc IgG-HRP; legend calls the values approximate
Protocol: FIG. 3A-3D show characterizations of six V7-AMG510 A*03:01-reactive Fabs. […] Approximate IC₅₀ values for free drug (AMG510) competition for each clone are reported, as derived from FIG. 3C. […] Recombinant V7-AMG510 HLA-A*03:01 was captured via streptavidin in an ELISA and increasing amounts of free AMG510 preincubated with the indicated clones in Fab format before detection of Fab binding with an anti-myc secondary IgG-HRP conjugate. Data are presented as the mean #standard deviation of three replicates. […] Data are presented as the mean±standard deviation of four replicates.

[3] = biological target: T1, V7-AMG510 HLA-A*03:01 MHC-I complex; test: BLI (Octet), Fab on immobilised biotinylated pMHC
Protocol: as §1

[4] = biological target: T2, V7-ARS1620 HLA-A*03:01 MHC-I complex (human); test: competition ELISA: the concentration is that of free ARS1620 (small molecule, the varied competitor); read-out is P2B2 IgG-HRP binding to W6/32-captured A*03:01/V7-ARS
T2 construct: also called V7-ARS HLA-A*03:01; V7-ARS A*03:01
Protocol: The complexes were captured by the conformation-specific antibody W6/32 and detected by the ARS1620-specific antibody (P1A4) in the presence of various amounts of free ARS1620. Data is presented as mean±standard deviation for four replicates.
MHC-I refolding and purification. […] Refolding reactions were performed with various peptides of interest in refolding buffer (100 mM Tris pH 8.0, 400 mM L-Arginine.HCl, 5 mM reduced glutathione, 0.5 mM oxidized glutathione, 2 mM EDTA, and complete protease inhibitor cocktail (Roche)). Briefly, B2m (2 μM) and peptide (10 μM) were diluted into refolding buffer, then denatured heavy chain was added to 1 μM. Reactions proceeded at 10° C. overnight for ELISA assays. MHC-I ELISAs. Black, 384 well Nunc Maxisorp plates were coated with 50 μL of the anti-heavy chain antibody W6/32 (Bio X Cell Cat #BE0079, RRID:AB_1107730) at 5 μg/mL in PBS overnight. The plate was washed twice with PBS (100 μL) and blocked with 3% BSA PBS (120 μL) for 1 hour at room temperature. Plates were then washed three times with 0.05% Tween-20 PBS (PBST) (100 μL). Refolded MHC complexes (crude or FPLC purified) were diluted 10× into 1% BSA PBS and 50 μL added to wells in quadruplicate. Plates were incubated at room temperature with shaking for 1 hour, then washed three times with 1% BSA PBS (100 μL).

[5] = biological target: T2, V7-ARS1620 HLA-A*03:01 MHC-I complex; test: BLI (Octet), Fab on immobilised biotinylated pMHC
Protocol: as §1

[6] = biological target: T3, K5-ARS1620 HLA-A*02:01 MHC-I complex (human); test: BLI (Octet), Fab on immobilised biotinylated pMHC
T3 construct: also called K5-ARS HLA-A*02:01
Protocol: as §1

[7] = biological target: T1, V7-AMG510 HLA-A*03:01 MHC-I complex; test: BLI, Fab on pMHC
Protocol: as §1

B1: P1H4 Fab (Fab, V domains shown)
VH: EVQLVQSGAEVKKPGSSVKVSCKASGGTFSSYAISWVRQAPGQGLEWMGGIIPIFGTANYAQKFQGRVTITADKSTSTAYMELSSLRSEDTAVYYCAFNYYDSSGYSDYWGQGTLVTVSS
VL: ETTLTQSPGTLSLSPGERATLSCRASQSVSSSYLAWYQQKPGQAPRLLIYGASSRATGIPDRFSGSGSGTDFTLTISRLEPGDFAVYYCQQYGTSPITFGQGTRLEIKR
Kd [1]: 59 nM
AMG510 IC50 [2]: ~930 nM

B2: P2B6 Fab (Fab, V domains shown)
VH: QLQLQESGPGLVKPSETLSLTCTVSGVSISSRSDHWGWVRQPPGKGLEWIGSISYSGSTYYNPSLKSRVTISVDTSKNQLSLKLTSVTAADTAVYYCARRALAQQLVMDVWGQGTTVTVSS
VL: DVVMTQSPLSLPVTPGEPASISCRSSQSLLRNNGYNYLDWYLQKPGQSPQLLIYLGSNRASGVPDRFSGSGSGRDFTLKISRVEAEDVGIYYCMQGAHWPYTFGQGTNLEISR
Kd [1]: 29 nM
AMG510 IC50 [2]: ~74 nM

B3: P2E3 Fab (Fab, V domains shown)
VH: QVQLQESGPGLVKPSETLSLTCTVSGGSVSSSSYYWGWIRQPPGEGLEWIGSIYYSGSTYYNPSLKSRVTISVDTSKNQFSLKLSSVTAADTAVYYCATRLRGSFDYWGQGTLVTVSS
VL: DVVMTQSPLSLPVTPGEAASISCRSSQSLLHSNGYTYLDWYLQKPGQSPRLLIYSGSNRASGVPDRFSGSGSGTDFTLKISRVEAEDVGVYYCMQGTHWPYTFGQGTRLEIKR
Kd [1]: 68 nM

B4: P1E5 Fab (Fab, V domains shown)
VH: QVQLQESGGGVVQPGRSLRLSCAASGFTFSSYEMNWVRQAPGKGLEWVAVISYDGSNKYYADSVKGRFTISRDNSKNTLYLQMNSLRAEDTAVYYCARDAYSGWFDYWGQGTLVTVSS
VL: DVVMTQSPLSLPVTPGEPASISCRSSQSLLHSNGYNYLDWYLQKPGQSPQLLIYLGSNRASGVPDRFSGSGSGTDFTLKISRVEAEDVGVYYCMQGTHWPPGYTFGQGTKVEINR
Kd [3]: 13 nM
AMG510 IC50 [2]: ~200 nM

B5: P2C1 Fab (Fab, V domains shown)
VH: EVQLVQSGAEVKKPGSSVKVSCKASGGTFSSYAISWVRQAPGQGLEWMGIINPSGGSTSYAQKFQGRVTMTRDTSTSTVYMELSSLRSEDTAVYYCARDLGTIFEANGAFDIWGQGTMVTVSS
VL: QSALTQPASVSGSPGQSITISCTGTSSDVGSYNLVSWYQQHPGKAPKLMIYDVSNRPSGVSNRFSGSKSGNTASLTISGLQAEDEADYYCSSYTSSSTLVFGTGTNVTVLG
Kd [3]: 230 nM
AMG510 IC50 [2]: ~1500 nM

B6: P2B2 IgG-HRP conjugate (antibody, V domains shown)
VH: QVQLVESGGGVVQPGRYLRLSCATSGFTFSNYAMHWVRQAPGKGLEWVALISYDGSNKYYADSVKGRFTISRDKSTNALYLQMNSLRVEDTAVYYCARERVPWDYYGMDVWGQGTTVTVSS
VL: QSVVTQPPSVSAAPGHKVSISCSGSNSNIGHNYVSWYQQFPGTAPKLLVYRDDNRPSEVPDRFSGSKSGTSATLGITGLQTADEADYYCGTWDSTLQHVVFGGGTKLTVL
notes: also called V7-ARS-HLA-A*03:01-specific antibody P2B2
IC50 of free ARS1620 [4]: 445 nM

B7: P2B2 Fab (Fab, V domains shown)
VH: B6 VH
VL: QSVVTQPPSVSAAPGHKVSISCSGSNSNIGHNYVSWYQQFPGTAPKLLVYRDDNRPSEVPDRFSGSKSGTSATLGITGLQTADEADYYCGTWDSTLQHVVFGGGTKLTVLS
notes: also called P282
Kd [5]: 43 nM
Kd [6]: 470 nM

B8: P1B7 Fab (Fab, V domains shown)
VH: QVQLQQSGPGLVKPSQTLSLTCAISGDSVSSNSVAWNWIRQSPSRGLEWLGRTYYRSKWYSDYAVSVKSRITINPDTSKNQFSLQLTSMTPEDTAVYYCAREGVTMGPGAFDIWGQGTMVTVSS
VL: QSALTQPPSVSGSPGQSVTISCTGSSSDVGHYNRVSWYQQSPGTAPKLMIYDVSNRPSGAFSRFSGSRSGNTASLTISGLQPEDEADYYCSSHRTGYTVEVFGTGTKVTVLG
Kd [7]: 15 nM

B9: P1C10 Fab (Fab, V domains shown)
VH: QVQLVQSGGGLVKPGGSLRLSCAASGFTFSSYSMNWVRQAPGKGLEWVSYISSRGRTIYYADSVKGRFTISRDNAKNSLYLQMNSLRAEDTAVYYCVRDVPGVWGFAYWGQGTLVTVSS
VL: QSVVTQPPSVSAAPGQKVTISCSGSSSNIGNHYVSWYQQLPGTAPKLLIYDDGKRPSGIPDRFSGSKSGTSATLGITGLQTGDEADYYCATWDNSLSVVLFGGGTKLTVLG
Kd [5]: 59 nM
Kd [6]: 320 nM

From US20260102528A1 (University of California, published 2026)
